Assay results taken from US20030157096A1.

Columns and labels:
[1] = target: IL-TIF protein (human) (human) (UniProt Q9GZX6); experiment: cell-based or functional assay
[2] = target: zcytor11 and CRF2-4 receptors co-expressed on transfected BaF3 or BHK cells (human) (UniProt Q08334); experiment: cell-based or functional assay
zcytor11 and CRF2-4 receptors co-expressed on transfected BaF3 or BHK cells (human), sequence (chain, as listed by the source limits assumed, chain 1 of 2): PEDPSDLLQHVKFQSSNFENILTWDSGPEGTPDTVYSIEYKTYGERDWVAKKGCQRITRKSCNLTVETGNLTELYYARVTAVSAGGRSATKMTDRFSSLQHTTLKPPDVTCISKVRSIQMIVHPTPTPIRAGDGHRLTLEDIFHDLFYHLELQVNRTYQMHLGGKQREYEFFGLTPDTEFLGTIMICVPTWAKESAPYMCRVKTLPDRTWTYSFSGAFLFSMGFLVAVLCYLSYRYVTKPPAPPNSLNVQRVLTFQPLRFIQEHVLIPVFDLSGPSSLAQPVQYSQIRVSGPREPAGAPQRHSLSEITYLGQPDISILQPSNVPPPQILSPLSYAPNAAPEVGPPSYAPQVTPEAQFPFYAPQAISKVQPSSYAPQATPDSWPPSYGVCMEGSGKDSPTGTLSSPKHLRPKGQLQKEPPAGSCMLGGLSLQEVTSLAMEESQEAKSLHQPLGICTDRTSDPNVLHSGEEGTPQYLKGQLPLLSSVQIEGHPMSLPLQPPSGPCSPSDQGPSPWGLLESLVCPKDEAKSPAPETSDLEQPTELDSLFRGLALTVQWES
zcytor11 and CRF2-4 receptors co-expressed on transfected BaF3 or BHK cells (human), sequence (Q08334 20-325 limits assumed, chain 2 of 2): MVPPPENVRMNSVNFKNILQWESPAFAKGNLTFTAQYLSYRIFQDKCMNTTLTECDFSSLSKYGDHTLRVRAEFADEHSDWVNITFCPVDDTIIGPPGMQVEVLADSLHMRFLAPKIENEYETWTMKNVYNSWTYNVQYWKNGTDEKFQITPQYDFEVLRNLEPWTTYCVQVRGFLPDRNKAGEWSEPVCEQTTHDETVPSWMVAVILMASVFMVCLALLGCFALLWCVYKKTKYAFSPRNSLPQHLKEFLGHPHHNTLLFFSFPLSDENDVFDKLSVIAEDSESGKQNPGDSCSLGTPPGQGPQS

IL-TIF protein (human) (human), sequence (Q9GZX6 34-179 limits assumed): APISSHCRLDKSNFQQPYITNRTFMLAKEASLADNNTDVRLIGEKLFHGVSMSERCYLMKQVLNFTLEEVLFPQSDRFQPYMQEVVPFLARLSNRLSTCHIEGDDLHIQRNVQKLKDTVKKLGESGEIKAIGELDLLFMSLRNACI
CRF2-4/zcytor11-Fc soluble receptor heterodimer (Fc fusion), sequence (chain): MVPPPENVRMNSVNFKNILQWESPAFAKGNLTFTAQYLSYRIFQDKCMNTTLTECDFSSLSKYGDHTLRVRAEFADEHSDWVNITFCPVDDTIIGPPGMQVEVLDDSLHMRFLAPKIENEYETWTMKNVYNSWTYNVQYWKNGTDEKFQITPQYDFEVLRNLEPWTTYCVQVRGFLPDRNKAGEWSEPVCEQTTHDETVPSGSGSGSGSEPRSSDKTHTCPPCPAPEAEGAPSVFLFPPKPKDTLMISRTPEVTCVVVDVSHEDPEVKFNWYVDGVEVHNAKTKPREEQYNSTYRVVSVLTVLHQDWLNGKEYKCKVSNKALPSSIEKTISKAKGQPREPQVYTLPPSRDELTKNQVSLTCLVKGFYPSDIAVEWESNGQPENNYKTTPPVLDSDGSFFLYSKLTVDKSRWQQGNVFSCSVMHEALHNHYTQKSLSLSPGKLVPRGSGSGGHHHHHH
CRF2-4/zcytor11-Fc soluble receptor heterodimer (Fc fusion), sequence (chain): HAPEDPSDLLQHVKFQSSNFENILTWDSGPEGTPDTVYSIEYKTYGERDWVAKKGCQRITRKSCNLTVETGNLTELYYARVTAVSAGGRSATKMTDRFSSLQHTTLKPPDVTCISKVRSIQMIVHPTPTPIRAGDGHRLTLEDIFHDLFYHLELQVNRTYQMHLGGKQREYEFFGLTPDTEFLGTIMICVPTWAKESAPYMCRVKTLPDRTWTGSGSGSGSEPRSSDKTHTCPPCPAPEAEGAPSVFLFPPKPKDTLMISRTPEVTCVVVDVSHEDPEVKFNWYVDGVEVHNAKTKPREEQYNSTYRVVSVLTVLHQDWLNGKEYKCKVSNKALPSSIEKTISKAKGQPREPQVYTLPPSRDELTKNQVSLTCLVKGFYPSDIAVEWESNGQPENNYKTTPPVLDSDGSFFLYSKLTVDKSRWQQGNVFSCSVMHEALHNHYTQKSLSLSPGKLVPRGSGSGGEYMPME

| inhibition of IL-TIF-induced proliferation (Alamar Blue), concentration at which inhibition was barely detectable [1] [ng/mL] | inhibition of IL-TIF-induced proliferation (Alamar Blue), concentration giving complete inhibition [1] [ng/mL] | inhibition of IL-TIF-induced proliferation (Alamar Blue), concentration giving partial inhibition [1] [ng/mL] | Alamar Blue proliferation of BaF3/CRF2-4/zcytor11 cells, fold over background [2] [fold] | Substance |
| --- | --- | --- | --- | --- |
| 1.6 | 25 to 200 | 3.1 to 12.5 |  | CRF2-4/zcytor11-Fc soluble receptor heterodimer (Fc fusion) |
|  |  |  | 30 | IL-TIF protein (human) (from UniProt Q9GZX6 34-179) (ligand) |
